Experimental data reported in the supplement of paper PMC10567573.

B1: TRIM9 (parent)
chain: PRNSCITCPQCHRSLILDDRGLRG
B2: ZNF232 (parent)
chain: GKAYGWCSELIRHRRVHARKEPSH

Variants of: B1
Assay: protein stability index of a GFP-peptide fusion (GPS, HEK-293T) (PSI 1-6); higher = more stable
Conditions: c terminus: a fixed tail appended
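Note: lentivirally expressed fusions sorted by FACS into six bins by GFP to DsRed ratio, PSI derived from sequencing read proportions per bin multiplied by bin number.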

Protein stability index of substitutions, site by site:
H12: A 2.53; C 1.6; N 2.16; S 2.04; V 3.37; M 2.78; G 2.68; I 1.85; D 2.28; Q 1.96; K 2.69; F 2.2; W 2.07; T 1.38; Y 2.46; P 2.52; L 3.13
D18: I 1.53; L 1.53; M 2.57; Y 2.36; K 2.24; W 1.68; A 2.31; V 1.85; F 1.92; T 2.24; E 1.71; G 2.36; H 2.03; P 1.49; C 2.05; Q 1.96; N 1.7; S 2.3
R20: H 1.62; W 1.44; T 3.07; F 1.69; K 1.98; I 1.85; L 1.93; V 1.82; N 2.05; E 2.7; D 2.53; Y 2.35; P 2.6; A 1.98; Q 2.04; C 2.39; M 2.21; G 2.19
I16: E 3.16; C 2.32; V 2.28; N 2.49; T 1.99; S 2.97; L 2.38; G 1.76; P 2.42; R 2.13; K 2.68; H 1.97; A 1.94; D 2.64; F 1.69; M 2.58; Q 2.69; Y 2.58
G24: P 2.03; K 1.71; E 2.6; N 1.86; L 1.81; S 2.35; I 2.03; V 2.32; D 2.08; R 1.22; W 1.76; Y 1.84; Q 2.28; H 3.02; F 2.34; M 2.17; T 2.23; C 2.35; A 2.13
D19: W 1.52; G 1.58; K 2.05; A 2.46; Q 2.77; C 2.6; I 1.75; N 1.93; Y 1.7; V 1.4; M 2.24; P 1.81; R 1.84; F 1.72; T 2.42; H 1.9; S 2.11; L 1.41; E 1.82
C11: Y 2.11; W 3.38; S 2.43; R 2.71; V 2.2; T 2.78; Q 2.16
L15: V 2.24; Q 2.79; K 2.12; S 2.19; E 2.19; I 1.68; Y 2.79; T 2.59; H 2.45; P 2.77; A 1.92; D 2.51; W 2.48; M 2.61; F 3.08; G 1.64; C 1.95; N 1.98; R 2.13
L22: C 2.32; Y 2.54; G 2.3; E 2.21; N 2.34; W 2.54; V 2.55; S 2.62; T 3.33; H 2.49; P 3.51; D 3.81; R 2.84; Q 3.69; M 2.69; K 2.46; F 1.91; I 2.36
R23: W 1.25; Q 2.41; H 2.05; I 2.08; S 2.1; C 2.6; A 2.5; L 2.48; P 2.42; E 3.21; D 2.96; K 2.2; Y 1.63; V 1.93; M 1.67; F 2.75; T 3; N 2.56; G 2.48
L17: A 1.72; Q 2.25; T 2.08; D 2.48; E 2.2; Y 2.11; S 2.15; C 2.51; V 2.19; R 2.48; M 2.21; W 1.56; N 1.79; K 2.1; I 2.05; F 2.44; H 2.74; P 2.4; G 2.08
R13: W 2.42; Q 2.63; G 2.37; P 1.97; Y 2.53; H 2.59; C 4.16; N 2.49; S 2.9; K 1.95; A 3.91; F 2.09; I 1.95; M 1.77; D 3.33; V 2.2; L 1.57; T 3.47; E 2.61
S14: D 2.4; F 1.91; K 2.7; V 3.13; P 2.52; Y 2.66; T 2.71; G 1.26; C 2.92; A 2.18; M 2.27; Q 2; L 2.11; W 1.68; R 2.4; E 2.6; I 2.93; H 2.25; N 1.9
G21: Q 2.01; V 1.78; C 2.52; L 2.09; S 1.71; I 1.47; D 2.07; T 1.57; W 2.06; E 2.93; A 1.93; H 2.11; K 2.52; Y 2.24; M 2.8; P 2.27; F 1.88; N 2.17

Variants of: B2
Assay: as above
Conditions: c terminus: a fixed tail appended

Protein stability index of substitutions, site by site:
Y4: F 2.84; L 2.76; H 3.63; Q 3.75; S 4.18; A 3.54; M 3.07; C 2.2; K 3.62; P 4.12; N 3.83; D 4.04; T 3.19; E 3.62; W 2.62; G 3.77; I 3.06; R 3.6; V 3.04
G5: D 2.92; M 2.94; K 2.95; I 2.29; N 3.56; L 1.72; C 1.59; E 2.89; H 3.04; A 3.55; F 2.5
A3: S 3.46; D 3.39; Y 2.53; R 2.92; L 2.29; N 3.12; G 3; E 3.04; P 2.81; T 3.02; C 2.89; I 2.35; V 2.97; M 2.77; Q 2.95; F 2.73; K 3.1; W 2.48; H 2.69
G1: T 3.35; F 2.79; L 2.85; D 3.43; K 2.75; R 2.87; H 2.75; A 2.89; N 3.14; W 1.97; S 3.08; Y 2.37; Q 3.28; V 2.45; I 2.72; M 2.55; C 2.73; E 3.39; P 3.44
K2: M 2.55; V 2.79; Q 3.26; L 2.61; W 1.85; F 2.62; C 2.41; T 3.12; I 2.72; Y 3.5; N 2.62; R 2.79; E 2.82; A 3.3; G 3.54; D 3.2; P 3.44; S 2.84; H 3.01
